Reference: publication doi:10.1101/2020.10.23.350348

Molecular target: transferrin receptor (UniProt P02786)
Test: SPR

Chain of transferrin receptor (P02786 whole entry): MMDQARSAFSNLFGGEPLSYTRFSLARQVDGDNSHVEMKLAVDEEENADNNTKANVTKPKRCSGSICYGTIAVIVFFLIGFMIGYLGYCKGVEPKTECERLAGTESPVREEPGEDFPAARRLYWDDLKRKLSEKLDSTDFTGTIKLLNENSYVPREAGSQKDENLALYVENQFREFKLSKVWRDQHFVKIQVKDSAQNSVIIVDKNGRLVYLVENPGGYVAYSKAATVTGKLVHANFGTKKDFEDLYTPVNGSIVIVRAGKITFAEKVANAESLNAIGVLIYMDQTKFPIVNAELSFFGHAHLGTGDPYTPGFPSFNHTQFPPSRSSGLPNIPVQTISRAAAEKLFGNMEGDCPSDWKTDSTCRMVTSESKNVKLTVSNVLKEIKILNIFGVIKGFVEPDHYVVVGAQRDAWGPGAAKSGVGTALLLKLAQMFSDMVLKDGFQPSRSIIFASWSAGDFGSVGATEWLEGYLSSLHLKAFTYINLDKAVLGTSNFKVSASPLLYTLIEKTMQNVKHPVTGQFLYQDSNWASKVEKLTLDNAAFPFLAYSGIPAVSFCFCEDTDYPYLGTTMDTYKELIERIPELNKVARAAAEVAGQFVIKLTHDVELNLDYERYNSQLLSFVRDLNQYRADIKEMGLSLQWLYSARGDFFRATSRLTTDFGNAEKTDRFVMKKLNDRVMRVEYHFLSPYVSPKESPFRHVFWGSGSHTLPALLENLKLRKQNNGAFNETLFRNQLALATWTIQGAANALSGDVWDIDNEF

SARS-CoV-2 spike protein (from UniProt P0DTC2 14-1273) (natural protein)
Kd: 2.95 nM
